Columns and labels:
[1] = system: wild-type MATa strain ATCC 28383; experiment: Growth-inhibitory effect on yeast, cell viability by plating (CFU); assay type: cell-based, S. cerevisiae; details: 0.125 g/L, 5 h of exposure, plated on YPD
Protocol: A 20 mL seed culture of wild-type MATa strain ATCC 28383 was grown in SD-THUL medium (0.67 Bacto yeast nitrogen base without amino acids, 2% glucose, 0.14% yeast synthetic drop-out medium without uracil, tryptophan, histidine and leucine). The culture was grown for 24 h, and 2.5 mL of the culture was used to inoculate 7 equal batches of 50 mL fermentation medium (2% (NH4)2SO4, 2% KH2PO4, 0.1% NaCl, 0.6% MgSO4.7H2O, 0.4% yeast extract, 1 mL mineral solution [FeSO4.7H2O 0.028%, ZnSO4.7H2O 0.029%, CuSO4.5H2O 0.008%, Na2MoO4.2H2O 0.024%, CoCl2.6H2O 0.024%, MnSO4.H2O 0.017%, HCl 1 mL], 0.5 mL 50% glucose, 1.5 mL vitamin solution [biotin 0.001%, Ca-pantothenate 0.012%, inositol 0.06%, pyridoxine-HCl 0.012%, thiamine-HCl 0.012%], and 0.5 mL 10% CaCl2) in 250 mL baffled Ehrlenmeyer flasks.
In 6 flasks, nootkatol or glycosylated nootkatol (nootkatol+1 glucose) were added in final concentrations of 0.06, 0.125, and 0.5 g/L. The 7th flask was used as a control and was not treated with nootkatol or glycosylated nootkatol. The cultures were grown at 28° C. and 170 rpm, and the cell viability was measured after 5 h of exposure by plating 100 μL of 1/1000 dilution of cell culture on yeast extract peptone dextrose (YPD) plates.

yeast = details: Gavira et al., 2013, Metab Eng. 18:25-35; cited from earlier work
[2] = In vitro glycosylation of nootkatol by purified UGTs with UDP-glucose, LC-MS; assay type: biochemical; details: 5 mM nootkatol, 15 mM UDP-glucose, 5 μL purified enzyme, overnight at 30° C.
Source text: UGT85A1 (SEQ ID NO:9, SEQ ID NO:10), UGT76E1 (SEQ ID NO:11, SEQ ID NO:12), UGT73E1 (SEQ ID NO:13, SEQ ID NO:14), UGT73C3 (SEQ ID NO:15, SEQ ID NO:16), and UGT76E12 (SEQ ID NO:17, SEQ ID NO:18) were each cloned into a T7 promoter-based vector comprising a sequence coding for an N-terminal 6×His-tag. The vector backbone was linearized with restriction endonucleases, the UGT genes were amplified by PCR, and the constructs were verified by DNA sequencing.
Competent E. coli expression cells were transformed individually with a UGT-comprising plasmid. A colony from each transformation was inoculated individually in 6 mL NZCYM broth comprising an antibiotic. The pre-culture was incubated overnight at 37° C. and 220 rpm and used to inoculate 100 mL NZYCM broth with an antibiotic at an initial OD600 of 0.2. After growth at 37° C. until an OD600 of 0.6-0.8, the cells were induced for protein expression using 0.2 mM IPTG, followed by incubation at 20° C. and 120 rpm for 18-20 h.
Cells were harvested by centrifugation at approximately 4° C. and approximately 4000 g for 20 min and resuspended in 3 mL 10 mM Tris-HCl, pH 8.0 plus protease inhibitor. After cell disruption, 6 mL 1×HIS binding buffer (20 mM Tris-HCl, pH 7.5, 500 mM NaCl, and 10 mM imidazole) were added to the suspension. Cell crude extracts were centrifuged at 4° C. and approximately 4000 g for 30 min. The supernatant was collected, and 300 μL of nickel beads were added; the mixture was incubated with gentle mixing at 4° C. for 2 h. The mixture was centrifuged at 4° C. and approximately 1000 g for 3 min, the supernatant was removed, and the beads were resuspended with 3 mL 1×HIS binding buffer. This step was performed twice. The beads were then resuspended and mixed gently in 500 μL 1×HIS Binding Buffer. The mixture was then transferred into a cold Eppendorf tube, centrifuged at 4° C. and approximately 1000 g, and the supernatant was removed. The beads were resuspended in 400 μL elution buffer (20 mM Tris-HCl, pH 7.5, 500 mM NaCl, 250 mM imidazole), mixed gently, centrifuged at 4° C. and approximately 1000 g for 3 min, and the supernatant was collected. This step was performed three times to collect three elution fractions. Glycerol was added in a 1:1 ratio to each elution tube and protein solutions were stored at −80° C. The fractions were analyzed by SDS-PAGE and Western Blot. The fraction comprising the UGT with the highest purity was used for the subsequent in vitro assay.
UGT85A1 (SEQ ID NO:9, SEQ ID NO:10), UGT76E1 (SEQ ID NO:11, SEQ ID NO:12), UGT73E1 (SEQ ID NO:13, SEQ ID NO:14), UGT73C3 (SEQ ID NO:15, SEQ ID NO:16), and UGT76E12 (SEQ ID NO:17, SEQ ID NO:18) were employed for in vitro glycosylation of nootkatol in the presence of the sugar donor, UDP-glucose. The reaction was carried out in a final volume of 50 μL buffer (100 mM Tris, pH 8.0, 5 mM MgCl2, 1 mM KCl), 5 mM nootkatol in DMSO, 15 mM UDP-glucose, and 5 μL purified enzyme solution. The reaction was incubated overnight at 30° C. The sample was analyzed by LC-MS on a BEH C18-column (100 mm×2.1 mm, 5 μm). Mobile phase A was 0.1% formic acid in water; mobile phase B was 0.1% formic acid in acetonitrile. B concentration gradient was 0-1 min, 1%; 1-5 min, 100%; 5-7 min, 100%; 7-7.1 min, 1%; 7.1-9 min, 1%. The injection volume was 5 μL. […]

| Molecule | cell death [1] [%] | cellular toxicity in yeast (yeast) | Area-under-curve of the peak of glycosylated nootkatol (nootkatol+1 glucose) produced in vitro [2] |
| --- | --- | --- | --- |
| C=C(C)C1CCC2=CC(O)CC(C)C2(C)C1 (centres unmarked) [nootkatol, 2,3,4,4a,5,6,7,8-octahydro-6-isopropenyl-4,4a-dimethyl-2-naphtalenol] | ~99 | cellular toxicity | – |
| C=C(C)[C@@H]1CCC2=CC(=O)C[C@@H](C)[C@]2(C)C1 [nootkatone, 4,4a,5,6,7,8-hexahydro-6-isopropenyl-4,4a-dimethyl-2(3H)-napthalenone] | – | cellular toxicity | – |
| UGT85A1: UDP-glycosyltransferase, Arabidopsis thaliana, SEQ ID NO: 9, SEQ ID NO: 10 (protein, listed as Arabidopsis thaliana) MGSQIIHNSQKPHVVCVPYPAQGHINPMMRVAKLLHARGFYVTFVNTVYNHNRFLRSRGSNALDGLPSFRFESIADGLPETDMDATQDITALCESTMKNCLAPFRELLQRINAGDNVPPVSCIVSDGCMSFTLDVAEELGVPEVLFWTTSGCAFLAYLHFYLFIEKGLCPLKDESYLTKEYLEDTVIDFIPTMKNVKLKDIPSFIRTTNPDDVMISFALRETERAKRASAIILNTFDDLEHDVVHAMQSILPPVYSVGPLHLLANREIEEGSEIGMMSSNLWKEEMECLDWLDTKTQNSVIYINFGSITVLSVKQLVEFAWGLAGSGKEFLWVIRPDLVAGEEAMVPPDFLMETKDRSMLASWCPQEKVLSHPAIGGFLTHCGWNSILESLSCGVPMVCWPFFADQQMNCKFCCDEWDVGIEIGGDVKREEVEAVVRELMDGEKGKKMREKAVEWQRLAEKATEHKLGSSVMNFETVVSKFLLGQKSQD | – | – | 1632282 |
| UGT76E12: UDP-glycosyltransferase, Arabidopsis thaliana, SEQ ID NO: 17, SEQ ID NO: 18 (protein, listed as Arabidopsis thaliana) MQVLGMEEKPARRSVVLVPFPAQGHISPMMQLAKTLHLKGFSITVVQTKFNYFSPSDDFTHDFQFVTIPESLPESDFKNLGPIQFLFKLNKECKVSFKDCLGQLVLQQSNEISCVIYDEFMYFAEAAAKECKLPNIIFSTTSATAFACRSVFDKLYANNVQAPLKETKGQQEELVPEFYPLRYKDFPVSRFASLESIMEVYRNTVDKRTASSVIINTASCLESSSLSFLQQQQLQIPVYPIGPLHMVASAPTSLLEENKSCIEWLNKQKVNSVIYISMGSIALMEINEIMEVASGLAASNQHFLWVIRPGSIPGSEWIESMPEEFSKMVLDRGYIVKWAPQKEVLSHPAVGGFWSHCGWNSTLESIGQGVPMICRPFSGDQKVNARYLECVWKIGIQVEGELDRGVVERAVKRLMVDEEGEEMRKRAFSLKEQLRASVKSGGSSHNSLEEFVHFIRTL | – | – | 820053 |
| UGT73E1: UDP-glycosyltransferase, Stevia rebaudiana, SEQ ID NO: 13, SEQ ID NO: 14 (protein, listed as Stevia rebaudiana) MSPKMVAPPTNLHFVLFPLMAQGHLVPMVDIARILAQRGATVTIITTPYHANRVRPVISRAIATNLKIQLLELQLRSTEAGLPEGCESFDQLPSFEYWKNISTAIDLLQQPAEDLLRELSPPPDCIISDFLFPWTTDVARRLNIPRLVFNGPGCFYLLCIHVAITSNILGENEPVSSNTERVVLPGLPDRIEVTKLQIVGSSRPANVDEMGSWLRAVEAEKASFGIVVNTFEELEPEYVEEYKTVKDKKMWCIGPVSLCNKTGPDLAERGNKAAITEHNCLKWLDERKLGSVLYVCLGSLARISAAQAIELGLGLESINRPFIWCVRNETDELKTWFLDGFEERVRDRGLIVHGWAPQVLILSHPTIGGFLTHCGWNSTIESITAGVPMITWPFFADQFLNEAFIVEVLKIGVRIGVERACLFGEEDKVGVLVKKEDVKKAVECLMDEDEDGDQRRKRVIELAKMAKIAMAEGGSSYENVSSLIRDVTETVRAPH | – | – | 1288384 |
| UGT73C3: UDP-glycosyltransferase, Arabidopsis thaliana, SEQ ID NO: 15, SEQ ID NO: 16 (protein, listed as Arabidopsis thaliana) MATEKTHQFHPSLHFVLFPFMAQGHMIPMIDIARLLAQRGVTITIVTTPHNAARFKNVLNRAIESGLAINILHVKFPYQEFGLPEGKENIDSLDSTELMVPFFKAVNLLEDPVMKLMEEMKPRPSCLISDWCLPYTSIIAKNFNIPKIVFHGMGCFNLLCMHVLRRNLEILENVKSDEEYFLVPSFPDRVEFTKLQLPVKANASGDWKEIMDEMVKAEYTSYGVIVNTFQELEPPYVKDYKEAMDGKVWSIGPVSLCNKAGADKAERGSKAAIDQDECLQWLDSKEEGSVLYVCLGSICNLPLSQLKELGLGLEESRRSFIWVIRGSEKYKELFEWMLESGFEERIKERGLLIKGWAPQVLILSHPSVGGFLTHCGWNSTLEGITSGIPLITWPLFGDQFCNQKLVVQVLKAGVSAGVEEVMKWGEEDKIGVLVDKEGVKKAVEELMGDSDDAKERRRRVKELGELAHKAVEKGGSSHSNITLLLQDIMQLAQFKN | – | – | 1211635 |
| UGT76E1: UDP-glycosyltransferase, Arabidopsis thaliana, SEQ ID NO: 11, SEQ ID NO: 12 (protein, listed as Arabidopsis thaliana) MEELGVKRRIVLVPVPAQGHVTPIMQLGKALYSKGFSITVVLTQYNRVSSSKDFSDFHFLTIPGSLTESDLKNLGPFKFLFKLNQICEASFKQCIGQLLQEQGNDIACVVYDEYMYFSQAAVKEFQLPSVLFSTTSATAFVCRSVLSRVNAESFLLDMKDPKVSDKEFPGLHPLRYKDLPTSAFGPLESILKVYSETVNIRTASAVIINSTSCLESSSLAWLQKQLQVPVYPIGPLHIAASAPSSLLEEDRSCLEWLNKQKIGSVIYISLGSLALMETKDMLEMAWGLRNSNQPFLWVIRPGSIPGSEWTESLPEEFSRLVSERGYIVKWAPQIEVLRHPAVGGFWSHCGWNSTLESIGEGVPMICRPFTGDQKVNARYLERVWRIGVQLEGELDKGTVERAVERLIMDEEGAEMRKRVINLKEKLQASVKSRGSSFSSLDNFVNSLKMMNFM | – | – | 1566336 |
